Measured values taken from article PMC11720309, “Transcriptional regulation of miR528-PPO module by miR156 targeted SPLs orchestrates chilling response in banana”.

T1: MaSPL44 (UniProt A0A804KAB2 1-473)
T1 sequence: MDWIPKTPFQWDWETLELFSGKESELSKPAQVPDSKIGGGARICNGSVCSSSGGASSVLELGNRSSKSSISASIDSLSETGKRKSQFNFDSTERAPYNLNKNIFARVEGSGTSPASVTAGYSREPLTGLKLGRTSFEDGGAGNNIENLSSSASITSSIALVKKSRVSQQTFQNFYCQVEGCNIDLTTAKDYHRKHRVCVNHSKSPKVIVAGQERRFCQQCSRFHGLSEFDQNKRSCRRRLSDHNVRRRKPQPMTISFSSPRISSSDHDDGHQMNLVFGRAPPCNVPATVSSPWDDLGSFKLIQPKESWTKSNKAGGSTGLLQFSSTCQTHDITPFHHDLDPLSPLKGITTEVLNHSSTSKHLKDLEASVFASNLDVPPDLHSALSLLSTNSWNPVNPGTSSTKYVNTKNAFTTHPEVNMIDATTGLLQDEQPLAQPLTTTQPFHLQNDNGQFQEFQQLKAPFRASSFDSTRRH

T2: MaSPL5 (UniProt A0A804I0H4 1-393)
T2 sequence: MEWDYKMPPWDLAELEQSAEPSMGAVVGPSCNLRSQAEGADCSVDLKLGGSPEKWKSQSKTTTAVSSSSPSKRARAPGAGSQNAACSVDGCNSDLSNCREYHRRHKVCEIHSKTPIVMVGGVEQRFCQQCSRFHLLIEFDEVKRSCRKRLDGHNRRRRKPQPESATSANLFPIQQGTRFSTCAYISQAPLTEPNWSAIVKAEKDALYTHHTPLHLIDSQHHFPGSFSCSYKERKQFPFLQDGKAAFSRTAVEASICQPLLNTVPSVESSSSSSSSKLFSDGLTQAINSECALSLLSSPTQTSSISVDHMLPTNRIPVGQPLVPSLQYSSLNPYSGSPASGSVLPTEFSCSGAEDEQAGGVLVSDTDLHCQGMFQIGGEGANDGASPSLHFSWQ

T3: MaSPL4 (UniProt A0A804HZD8 1-178)
T3 sequence: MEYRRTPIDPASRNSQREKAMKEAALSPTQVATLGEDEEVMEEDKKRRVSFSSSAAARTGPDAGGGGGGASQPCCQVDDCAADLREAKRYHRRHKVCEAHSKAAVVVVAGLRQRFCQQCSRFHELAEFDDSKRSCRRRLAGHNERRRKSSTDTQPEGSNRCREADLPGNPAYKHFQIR


How the values were obtained:
Conditions in all cases: protein: recombinant; tags: GST (N-terminal, pGEX-4T-3); blunt
[1] = molecular target: T1, MaSPL44; test: competition; unlabeled competitor vs biotin-N1 (EMSA); Chemiluminescent EMSA Kit (Thermo Fisher); buffer, salt, pH and temperature not stated
[2] = molecular target: T2, MaSPL5; test: as above
[3] = molecular target: T3, MaSPL4; test: as above
[4] = molecular target: T1, MaSPL44; test: EMSA; Chemiluminescent EMSA Kit (Thermo Fisher); buffer, salt, pH and temperature not stated
[5] = molecular target: T2, MaSPL5; test: as above
[6] = molecular target: T3, MaSPL4; test: as above

Row | Binder | binding result [1] | binding result [2] | binding result [3] | binding result [4] | binding result [5] | binding result [6]
1 | MamiR528pro-mut-probe (dsDNA) DNA 1: GCGCAAAAAAGTGCAAAAATAAGATACTACACAAACCACACAATAGAAAAAACACTATC DNA 2: GATAGTGTTTTTTCTATTGTGTGGTTTGTGTAGTATCTTATTTTTGCACTTTTTTGCGC | no binding | no binding | no binding | – | – | –
2 | MamiR528pro-probe (dsDNA) DNA 1: GCGCAGTACAGTGCAGTACTAAGATACTACACAAACCACACAATAGAAGTACCACTATC DNA 2: GATAGTGGTACTTCTATTGTGTGGTTTGTGTAGTATCTTAGTACTGCACTGTACTGCGC | – | – | – | binds | binds | binds
